pIC50: −log10 of the molar value. Where two headings read alike, the source gives them in different places.
Assays:
[1] = target: integrin complement receptor 3 (CR3) on human leukocytes (human) (UniProt P11215)
[2] = target: integrin complement receptor 3 (CR3) on human leukocytes (human) (UniProt P11215); remark: listed apart in the source
[3] = target: integrin complement receptor 3 (CR3) on human leukocytes (human) (UniProt P11215); remark: listed apart in the source
[4] = target: integrin complement receptor 3 (CR3) on human leukocytes (human) (UniProt P11215); test: competition: 125I-Factor X binding to fMLP-stimulated human neutrophils
[5] = target: integrin complement receptor 3 (CR3) on human leukocytes (human) (UniProt P11215); remark: listed apart in the source
[6] = target: integrin complement receptor 3 (CR3) on human leukocytes (human) (UniProt P11215); test: macrophages spread on antibody-coated wells; residual CD11b/CD18 detected with C3bi-coated erythrocytes
[7] = target: integrin complement receptor 3 (CR3) on human leukocytes (human) (UniProt P11215); remark: listed apart in the source

Substance	% inhibition of 125I-Factor X binding [1]	% Inhibition of TEM (transendothelial migration of neutrophils) [2]	concentration at which inhibition of neutrophil adherence was lost [3]	pIC50 [4]	inhibition of neutrophil adherence to TNF-stimulated HUVEC [5]	% reduction of the binding of C3bi-coated erythrocytes to macrophages [6]	inhibition of transendothelial migration of neutrophils [7]	% inhibition of 125I-Factor X binding [4]
Filamentous hemagglutinin (FHA) of Bordetella pertussis, native purified protein (from UniProt P12255) (ligand)	70%	82%	0.001 µM	7.00				
mAb IB4 against CD18 (antibody)					38%	67%	73%	53%
mAb W6/32 against HLA class I antigen (antibody)							6%	
